26 molecules from patent US20190359693A1 can be followed below.

What all share (experiment): cell-based or functional assay
The target of test [1] is HA of H5N1 A/Vietnam/1194/04 (influenza A virus).
Test [2] has as its target HA of H7N3 A/NIBRG/60 (A/mallard/NL/12/00) (influenza A virus).
Test [3] concerns the target HA of H1N1 A/New Caledonia/20/1999 (influenza A virus).
Test [4] concerns the target HA of H3N2 A/Brisbane/10/2007 (influenza A virus).
Test [5] has as its target hemagglutinin (HA) of influenza A/Brisbane/10/07 (H3N2) (influenza A virus A/Brisbane/10/07 (H3N2)).
In test [6] the target is hemagglutinin (HA) of influenza A/New York/107/03 (PR8) (influenza A virus A/New York/107/03 (PR8)).
Test [7] has as its target hemagglutinin (HA) of influenza A/Vietnam/1194/04 (H5N1) (influenza A virus A/Vietnam/1194/04 (H5N1)).
Test [8] deals with hemagglutinin (HA) of influenza A/New Caledonia/20/99 (H1N1) (influenza A virus A/New Caledonia/20/99 (H1N1)).

B1: SD1018 (VHH)
VHH: EVQLVESGGGLVQAGGSLRLSCAASGQTYHMGWFRQTPGNERESVAAVTWSGAVTRYADSVKGRFTISRDNAKNTVYLQMNSLVPEDTAIYYCAATRSMAPIIQLSPGSYDYWGPGTQVTVSS
B1: the VNA titer in test [1] is 615 nM; in test [2] it was more than 1000 nM; in test [3], more than 1000 nM; in test [4], more than 1000 nM.

B2: SD3067 (VHH)
VHH: EVQLVESGGGLVQPGGSLRLSCAASGRTLSIYSMGWFRQAPGKEREFVATIGWNSGRTFYPDSLKGRFTISRDNSKNTLYLQMNSLRAEDTAVYYCAAAKGPLRLSSQADYWGQGTLVTVSS
As for B2, the VNA IC50 is 3 nM in test [5] and 16 nM in test [6].

B3: SD3068 (VHH)
VHH: EVQLVESGGGLVQPGGSLRLSCAASGRTLSIYSMGWFRQAPGKEREFVSTIGWNSGRTFYPDSLKGRFTISRDNSKNTLYLQMNSLRAEDTAVYYCAAAKGPLRLSSQADYWGQGTLVTVSS
Regarding B3, the VNA IC50 in test [5] worked out at 4 nM; in test [6], 26 nM.

B4: SD1035 (VHH)
VHH: EVQLVESGGGLVQAGGTLRLSCAASGSAVSISRMAWYRQAPGKQRELVADIFSGGGTNYADSVKGRFTISRDNAKNTVDLQMNSLKPEDTAVYYCSARSAVAAIHWDQYDYWGQGTQVTVSS
As to B4, the VNA titer was more than 1000 nM in test [2] and 74.8 nM in test [3].

B5: SD1047 (VHH)
VHH: EVQLVESGGGLVQAGGSLRISCAASGRTYAMAWFRQAPGKEREFVAHINALGTRTYYSDSVKDRFTISRDNAKNTEYLQMNSLKPEDTAVYYCVAGGQWRAAPVAAAESYDFWGQGTQVTVSS
With B5, the VNA titer is more than 1000 nM in test [1] and 510 nM in test [2].

B6: SD3014 (VHH)
VHH: EVQLVESGGGVVQPGGSLRLSCAASISIFDIYAMDWYRQAPGKQRELVAVSFRDGSTYYADSVKGRFTISRDNSKNTLYLQMNSLRAEDTAVYLCHVSLYRDPLGVAGGMGVYWGKGALVTVSS
Consider B6, for which the VNA IC50 in test [7] was determined as 11 nM; in test [8], 3 nM.

B7: SD3016 (VHH)
VHH: EVQLVESGGGVVQPGGSLRLSCAASISIFDIYAMDWYRQAPGKQRELVAVSFRDGSTYYADSVKGRFTISRDNSKNTLYLQMNSLRPEDTAVYLCHVSLYRDPLGVAGGMGVYWGKGALVTVSS
Regarding B7, the VNA IC50 in test [7] was found to be 8 nM; in test [8] it was 3 nM.

B8: SD3078 (VHH)
VHH: EVQLVESGGGVVQPGGSLRLSCAASISIFDIYAMDWYRQAPGKQRELVSVSFRDGSTYYADSVKGRFTISRDNSKNTLYLQMNSLRAEDTAVYYCHVSLYRDPLGVAGGLGVYWGQGTLVTVSS
As for B8, the VNA IC50 in test [5] was found to be 632 nM; in test [7], 20 nM; in test [8] it was 8 nM.

B9: SD3032 (VHH)
VHH: EVQLVESGGGLVQPGGSLRLSCAVSISIFDIYAMDWYRQAPGKQRDLVATSFRDGSTNYADSVKGRFTISRDNAKNTLYLQMNSLKPEDTAVYLCHVSLYRDPLGVAGGAGVYWGKGALVTVSS
As to B9, the VNA IC50 in test [7] and in test [8] was more than 500 nM in each case.

B10: SD3031 (VHH)
VHH: EVQLVESGGGLVQPGGSLRLSCAVSISIFDIYAMDWYRQAPGKQRDLVATSFRDGSTNYADSVKGRFTISRDNAKNTLYLQMNSLKPEDTAVYLCHVSLYRDPLGVAGGVGVYWGKGALVTVSS
For B10, the VNA IC50 in test [5] was more than 1000 nM; in test [7] it was 51 nM; in test [8], 37 nM.

B11: SD3018 (VHH)
VHH: EVQLVESGGGVVQPGGSLRLSCAASISIFDIYAMHWYRQAPGKQRELVAVSFRDGSTYYADSVKGRFTISRDNSKNTLYLQMNSLRAEDTAVYLCHVSLYRDPLGVAGGMGVYWGKGALVTVSS
In the case of B11, the VNA IC50 was 8 nM in test [7] and 6 nM in test [8].

B12: SD3017 (VHH)
VHH: EVQLVESGGGVVQPGGSLRLSCAASISIFDIYAMHWYRQAPGKQRELVATSFRDGSTYYADSVKGRFTISRDNSKNTLYLQMNSLRAEDTAVYLCHVSLYRDPLGVAGGMGVYWGKGALVTVSS
For the molecule B12, the VNA IC50 in test [7] was determined as 11 nM; in test [8], 4 nM.

B13: SD3089 (VHH)
VHH: EVQLVESGGGVVQPGGSLRLSCAASISIFDIYAMHWYRQAPGKQRELVSVSFRDGSTYYADSVKGRFTISRDNSKNTLYLQMNSLRAEDTAVYYCHVSLYRDPLGVAGGLGVYWGQGTLVTVSS
With B13, the VNA IC50 in test [5] is 1190 nM; in test [7] it was 20 nM; in test [8], 3 nM.

B14: SD3019 (VHH)
VHH: EVQLVESGGGVVQPGGSLRLSCAASISIFDIYAMHWYRQAPGKQRELVSVSFRDGSTYYADSVKGRFTISRDNSKNTLYLQMNSLRAEDTAVYLCHVSLYRDPLGVAGGMGVYWGKGALVTVSS
Consider B14, for which the VNA IC50 in test [7] was determined as 8 nM; in test [8], 4 nM.

B15: SD3033 (VHH)
VHH: EVQLVESGGGLVQPGGSLRLSCAVSISIFDIYAMDWYRQAPGKQRDLVATSFRDGSTNYADSVKGRFTISRDNAKNTLYLQMNSLKPEDTAVYLCHVSLYRDPLGVAGGFGVYWGKGALVTVSS
With B15, the VNA IC50 was determined as 316 nM in test [7] and 51 nM in test [8].

B16: SD3020 (VHH)
VHH: EVQLVESGGGVVQPGGSLRLSCAASISIFDIYAMHWYRQAPGKQRELVAVSFRDGSTYYADSVKGRFTISRDNSKNTLYLQMNSLRPEDTAVYLCHVSLYRDPLGVAGGMGVYWGKGALVTVSS
Regarding B16, the VNA IC50 in test [7] came to 15 nM; in test [8] it was 4 nM.

B17: SD3080 (VHH)
VHH: EVQLVESGGGVVQPGGSLRLSCAASISIFDIYAMDWYRQAPGKQRELVAVSFRDGSTYYADSVKGRFTISRDNSKNTLYLQMNSLRPEDTAVYYCHVSLYRDPLGVAGGLGVYWGQGTLVTVSS
As for B17, the VNA IC50 in test [5] was 632 nM; in test [7], 16 nM; in test [8], 5 nM.

B18: SD3015 (VHH)
VHH: EVQLVESGGGVVQPGGSLRLSCAASISIFDIYAMDWYRQAPGKQRELVSVSFRDGSTYYADSVKGRFTISRDNSKNTLYLQMNSLRAEDTAVYLCHVSLYRDPLGVAGGMGVYWGKGALVTVSS
On to B18, for which the results for the VNA IC50 in test [7] and in test [8] were 6 nM and 3 nM, respectively.

B19: SD3026 (VHH)
VHH: EVQLLESGGGLVQPGGSLRLSCAASGRTYAMSWFRQAPGKEREFVSAINALGTRTYYADSVKGRFTISRDNSKNTLYLQMNSLRAEDTAVYYCTAQGQWRAAPVAVAAEYEFWGQGTQVTVSS
Take B19: the figures for the VNA IC50 in test [5] and in test [6] were 16 nM and 8 nM, respectively.

B20: SD3028 (VHH)
VHH: EVQLLESGGGLVQAGGSLRLSCAASGRTYAMSWFRQAPGKEREFVAHINALGTRTYYADSVKGRFTISRDNSKNTLYLQMNSLRPEDTAVYYCTAQGQWRAAPVAVAAEYEFWGQGTQVTVSS
On to B20, for which the VNA IC50 in test [5] came out at 101 nM; in test [6], 26 nM.

B21: SD3095 (VHH)
VHH: EVQLLESGGGLVQPGGSLRLSCAASGRTYAMGWFRQAPGKEREFVAHINALGTRTYYADSVKGRFTISRDNSKNTLYLQMNSLRPEDTAVYYCTAQGQWRAAPVAVAAEYEFWGQGTLVTVSS
For the molecule B21, the VNA IC50 amounted to 8 nM in test [5] and 6 nM in test [6].

B22: SD3096 (VHH)
VHH: EVQLLESGGGLVQPGGSLRLSCAASGRTYAMGWFRQAPGKEREFVAHINALGTRTYYADSVKGRFTISRDNSKNTVYLQMNSLRPEDTAVYYCTAQGQWRAAPVAVAAEYEFWGQGTLVTVSS
Consider B22, for which the results for the VNA IC50 in test [5] and in test [6] were 26 nM and 5 nM, respectively.

B23: SD3094 (VHH)
VHH: EVQLLESGGGLVQPGGSLRLSCAASGRTYAMGWFRQAPGKEREFVAHINALGTRTYYADSVKGRFTISRDNSKNTLYLQMNSLRAEDTAVYYCTAQGQWRAAPVAVAAEYEFWGQGTLVTVSS
Take B23: the VNA IC50 is 8 nM in test [5] and 6 nM in test [6].

B24: SD3098 (VHH)
VHH: EVQLLESGGGLVQPGGSLRLSCAASGRTYAMGWFRQAPGKEREFVAAINALGTRTYYADSVKGRFTISRDNSKNTLYLQMNSLRPEDTAVYYCTAQGQWRAAPVAVAAEYEFWGQGTLVTVSS
As to B24, the VNA IC50 in test [5] stood at 4 nM; in test [6], 16 nM.

B25: SD3027 (VHH)
VHH: EVQLLESGGGLVQAGGSLRLSCAASGRTYAMSWFRQAPGKEREFVSAINALGTRTYYADSVKGRFTISRDNSKNTLYLQMNSLRPEDTAVYYCTAQGQWRAAPVAVAAEYEFWGQGTQVTVSS
For the molecule B25, the VNA IC50 in test [5] was 16 nM; in test [6], 6 nM.

B26: SD1027 (VHH)
VHH: EVQLVESGGGMVQAGGSLRLSCAASGGTFSLYHMGWFRQAPGEEREFVAAISGSGGNTYYADSVKGRFTISRDNNKNTVYLQMSSLEPEDTAVYFCAAMKWPGILRDANAYDYWGQGTQVTVSS
With B26, the VNA titer in test [1] was more than 1000 nM; in test [2], more than 1000 nM; in test [3] it was 862 nM; in test [4], more than 1000 nM.
